Read-outs that look alike come from different tables or passages of the source.
Columns and labels:
[1] = biological target: T1, recombinant human GPC3 protein (human, UniProt P51654 25-563); assay: BLI (Octet), antibody on Protein A probe
T1 construct: also called human GPC3 full-length protein; recombinant GPC3 protein
Method: (§1) Using BLI technology (Octet), the antibody to be tested was captured on the Protein A probe. The binding capacity with human GPC3 protein (10 μg/ml as the initial concentration, 2-fold gradient, a total of 5 concentration points) was detected. The affinity constant KD was obtained according to the association and dissociation rates.

[2] = biological target: T1, recombinant human GPC3 protein; assay: BLI (Octet), antibody on Protein A probe; remark: listed apart in the source
Method: as §1, with “rates. The 49G8 humanized antibody binds to the recombinant GPC3 protein with high affinity. The affinity data is seen in Table 6.” for “rates.”

[3] = biological target: T2, human GPC3 on cells (human, UniProt P51654 25-563); assay: flow cytometry, CHO-human GPC3 cells
T2 construct: whole, on cells; One molecule is used for both CHO-hGPC3 transfectants and GPC3+ HepG2 cells; The assay field names the cell; also called CHO-hGPC3 (clone 2B10); CHO-human GPC3
Method: The binding of the antibodies to human GPC3 stably-transfected cells was detected by FACS. CHO-human GPC3 stably-transfected cells prepared in Example 1 in the logarithmic growth phase were adjusted to 5×10⁵ cells/ml with 4% calf serum (Hyclone, SH30626.06). 100 μl/well of cell suspension was added to a 96-well U-plate, and centrifuged at 300 g for 5 min. The supernatant was discarded. 100 μL of gradient diluted antibodies (initial concentration 200 nM, 3-fold dilution, 12 gradients) was added to each well and incubated at 4° C. for 45 min. The secondary antibody Alexa Fluro647 labeled goat anti-human IgG Fc (1:300 dilution) was added at 50 μL/well, incubated on ice for 45 minutes, and detected by flow cytometry.

[4] = biological target: T1, recombinant human GPC3 protein; assay: ELISA on coated recombinant human GPC3 protein, OD450 [panel Recombinant human GPC3 protein]
[5] = biological target: T3, recombinant cynomolgus monkey GPC3 full-length protein (cynomolgus monkey, UniProt A0A2K5VK50 24-558); assay: ELISA on coated recombinant cynomolgus monkey GPC3 protein, OD450 [panel Recombinant cynomolgus monkey GPC3 protein]
[6] = biological target: T1, recombinant human GPC3 protein; assay: ELISA, coated antigen 1 µg/ml
Method: (§2) The high-affinity positive clone 49G8 was selected to detect binding activity to recombinant human, cynomolgus monkey, mouse GPC3 full-length proteins, and recombinant human GPC3 extracellular domain membrane-proximal proteins. 1 μg/ml of the above-mentioned protein was coated overnight at 4° C. After blocking, 49G8 chimeric antibody (initial concentration 200 nM, 3-fold gradient dilution, a total of 12 concentrations) was added and reacted for 1 hour at room temperature. The secondary antibody HPR-labeled goat anti-human IgG Fc was added. After being developed by the TMB solution, the reaction was stopped with concentrated sulfuric acid, and the absorbance was read at […]. The 49G8 antibody can bind to the full-length human and cynomolgus monkey GPC3 proteins and the membrane-proximal end of the extracellular region of human GPC3 with a slightly higher affinity than the control antibody and a weak affinity to mouse GPC3 protein (Table 3).

[7] = biological target: T3, recombinant cynomolgus monkey GPC3 …; assay: ELISA, coated antigen 1 µg/ml
Method: as §2

[8] = biological target: T4, recombinant GST-human GPC3 stem protein (human); assay: ELISA, coated antigen 1 µg/ml
T4 construct: also called recombinant human GPC3 extracellular domain membrane-proximal protein
T4 sequence (chain, as listed by the source limits assumed): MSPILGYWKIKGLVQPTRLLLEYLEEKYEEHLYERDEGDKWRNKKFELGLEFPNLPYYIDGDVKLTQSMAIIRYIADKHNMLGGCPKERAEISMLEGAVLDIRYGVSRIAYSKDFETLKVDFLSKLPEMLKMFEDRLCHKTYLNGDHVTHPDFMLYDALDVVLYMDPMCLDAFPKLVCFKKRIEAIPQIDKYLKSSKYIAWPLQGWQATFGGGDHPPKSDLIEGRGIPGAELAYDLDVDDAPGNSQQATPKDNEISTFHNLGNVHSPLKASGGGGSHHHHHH
Method: as §2

B1: 49G8 (antibody, V domains shown)
VH: QVQLQQSGAELVRPGASVKLSCKALGYTFADYEIHWVKQTPVHGLEWIGAIHPGSGGTAYNQTFEGKATLTADKSSTTAYMELSSLTSEDSAVYYCTRYYSFAYWGQGTLVTVSA
VL: DVVMTQTPLSLPVSLGDQASISCRSSQSIVHSNGNTYLEWYLQKPGQSPKLLIYKVSNRFSGVPDRFSGSGSGTDFTLKISRVEAEDLGVYFCLQVTHVPLTFGAGTKLELK
notes: Chimeric human IgG1; also called 49G8 chimeric antibody; Mab 49G8
[1]
  Kd: 3.32 nM
  koff: 0.000231 s⁻¹
  kon: 69400 M⁻¹ s⁻¹
[2]
  Kd: 1.17 nM
  koff: 9.35e-05 s⁻¹
  kon: 79700 M⁻¹ s⁻¹
[3]
  EC50: 1.18 nM
[4]
  EC50 (read off the curve): ~0.03 nM
[5]
  EC50 (read off the curve): ~0.03 nM
[6]
  EC50: 0.072 nM
[7]
  EC50: 0.12 nM
[8]
  EC50: 0.074 nM

— US20240043568A1 (KEYMED BIOSCIENCES, published 2024)
